Conditions in all cases: both partners purified
Assay [1] addresses T1, human tapasin, lumenal domain (Gly1-Glu381), as used in the SPR experiments with the PaSta Fabs (Homo sapiens (human)).
T1 construct: human tapasin, lumenal domain, residues Gly1 to Glu381; the construct encodes the signal peptide too, the protein is secreted; for the SPR with the Fabs nothing is said; also called TPN; source: Drosophila S2 cells, purified from culture medium (chelate agarose, SEC, anion exchange)
T1 chain: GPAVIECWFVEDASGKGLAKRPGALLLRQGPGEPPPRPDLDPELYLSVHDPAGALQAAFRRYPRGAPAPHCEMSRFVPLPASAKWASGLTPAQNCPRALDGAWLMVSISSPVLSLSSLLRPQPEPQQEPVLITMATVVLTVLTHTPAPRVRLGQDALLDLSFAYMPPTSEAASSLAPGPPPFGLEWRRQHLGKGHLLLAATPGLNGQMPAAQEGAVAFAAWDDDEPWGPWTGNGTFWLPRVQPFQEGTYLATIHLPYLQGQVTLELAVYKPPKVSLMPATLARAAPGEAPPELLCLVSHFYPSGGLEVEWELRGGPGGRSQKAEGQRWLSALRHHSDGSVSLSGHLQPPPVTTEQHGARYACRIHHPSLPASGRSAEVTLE
Put plainly: SPR; PaSta2 Fab (panel c) or PaSta1 Fab (panel d) immobilised on a CM5 chip, tapasin captured on it, the other Fab injected at 62.5 to 4000 nM; fit to a 1:1 binding model (BiaEval 3.1); 25 °C, 10 mM HEPES pH 7.4, 150 mM NaCl, 3 mM EDTA, 0.05% Surfactant P20, 30 µL/min.

In assay [2] the target is T2, human tapasin lumenal domain (Gly1-Glu381), BirA and 6X His sequences removed with 3C protease (human, UniProt O15533).
T2 construct: Residues of the 3C site may remain at the C-terminus after cleavage; source: Drosophila S2 cells, purified from the culture media (chelate agarose, SEC, anion exchange), treated with 3C protease; not shown: 6X HIS, C-terminal, cleaved
In words: crystal structure; tapasin–PaSta1 Fab complex, PDB 7TUF, 2.8 Å; crystals grown in 10% PEG 4000, 0.1 M Hepes, pH 7.5.

In assay [3] the target is T3, human tapasin lumenal domain (Gly1-Glu381), state of the C-terminal tags not stated (human, UniProt O15533).
T3 construct: Tapasin as injected over the Fab surfaces in SPR and as added in the NMR experiments; source: Drosophila S2 cells, purified from the culture media (chelate agarose, SEC, anion exchange)
Put plainly: SPR; Fab of PaSta1 or PaSta2 covalently coupled onto CM5 chips (about 200 RU); tapasin 0.06 µM to 4 µM injected; 25 °C; 10 mM HEPES pH 7.4, 150 mM NaCl, 3 mM EDTA, 0.05% Surfactant P20; 30 µL/min; 1:1 binding model. (Surface plasmon resonance follows binding to a sensor surface in real time, without labels.)

Assay [4] addresses parental HLA-B*44:05 refolded with hβ2m and the peptide … (human | ). In words: SPR; biotinylated tapasin captured (200 RU) on a streptavidin chip; MHC-I offered in graded concentrations (15.6 nM to 500 nM for B44:02–9mer and B44:05-T73C–6mer, 1 µM to 16 µM for B44:05–9mer); 25 °C; 10 mM HEPES pH 7.4, 150 mM NaCl, 3 mM EDTA, 0.05% Surfactant P20; 30 µL/min; global fit to a 1:1 binding model; n = 3.

In assay [5] the target is T2, human tapasin lumenal domain …. In words: crystal structure; tapasin–PaSta2 Fab complex, PDB 7TUG, 3.9 Å; crystals grown in 17% PEG 10000, 0.1 M Bis-Tris, pH 5.5, 0.1 M Am acetate.

B1: PaSta1 Fab (anti-tapasin monoclonal antibody PaSta1) (Fab, V domains shown)
VH: DVQLQESGPGLVIPSQSLSLTCTVTGYSITTDYAWNWIRQFPGNRLEWMGYISSSGVTVYNPSLKSRISITRDTSKNQFFLQLISVTTEDTATYYCARRGYYRYDSIDYWGQGTTLTVSS
VL: QIVLSQSPAILSASPGEKVTMTCRATSSVSYIHWYQQKPGSSPKPWIYATSSLTSGVPVRFSGSGSGTSYSLTISRVEAEDAATYYCQQWSSNPPTFGGGTKLEIK
notes: heavy chain of the Fab in PDB 7TUF (ends after the second cysteine of the hinge, then His6); light chain of the Fab in PDB 7TUF; also called Pt1; Pt1H; source: Expi293F, transfected, purified from culture supernatant (TALON, SEC)
B1 returned a Kd in assay [1] of 1.1 nM.

B2: Fab fragment of the anti-tapasin monoclonal antibody PaSta1 (Fab, V domains shown)
VH: DVQLQESGPGLVIPSQSLSLTCTVTGYSITTDYAWNWIRQFPGNRLEWMGYISSSGVTVYNPSLKSRISITRDTSKNQFFLQLISVTTEDTATYYCARRGYYRYDSIDYWGQGTTLTVSS
VL: QIVLSQSPAILSASPGEKVTMTCRATSSVSYIHWYQQKPGSSPKPWIYATSSLTSGVPVRFSGSGSGTSYSLTISRVEAEDAATYYCQQWSSNPPTFGGGTKLEIK
notes: H chain of PaSta1 in PDB 7TUF (deposited here); the Fab H chain ends after the second cysteine in the hinge region, followed by the 6X HIS tag; L chain of PaSta1 in PDB 7TUF (deposited here); The L chain search model had VL and Cκ; also called PaSta1 (Fab); Pt1; source: Expi293F cells, transfected, purified from culture supernatants (TALON, SEC)
Consider B2, for which the binding result in assay [2] and in assay [3] was “binds” each time.

B3: human tapasin lumenal domain (Gly1-Glu381), biotinylated at its C-terminal BirA sequence (domain or fragment, UniProt O15533 21-401, looked up)
chain: GPAVIECWFVEDASGKGLAKRPGALLLRQGPGEPPPRPDLDPELYLSVHDPAGALQAAFRRYPRGAPAPHCEMSRFVPLPASAKWASGLTPAQNCPRALDGAWLMVSISSPVLSLSSLLRPQPEPQQEPVLITMATVVLTVLTHTPAPRVRLGQDALLDLSFAYMPPTSEAASSLAPGPPPFGLEWRRQHLGKGHLLLAATPGLNGQMPAAQEGAVAFAAWDDDEPWGPWTGNGTFWLPTVQPFQEGTYLATIHLPYLQGQVTLELAVYKPPKVSLMPATLARAAPGEAPPELLCLVSHFYPSGGLEVEWELRGGPGGRSQKAEGQRWLSALRHHSDGSVSLSGHLQPPPVTTEQHGARYACRIHHPSLPASGRSAEVTLE
modifications: biotin at the C-terminal BirA sequence
notes: Tapasin as captured on the streptavidin chip for SPR; also called biotinylated tapasin; source: Drosophila S2 cells, purified from the culture media (chelate agarose, SEC, anion exchange)
Regarding B3, in assay [4], the Kd is 1310 nM.

B4: PaSta2 Fab (anti-tapasin monoclonal antibody PaSta2) (Fab, V domains shown)
VH: QVQLQQSGAELVRPGTSVKMSCKAAGYTFTNYWIGWIKQRPGHGLEWIGDIYPGGGYTNYNEKFKVKATLTADTSSVTAYMQLSSLTSEDSAIYYCTREGNYGFAYWGQGTLVTVSA
VL: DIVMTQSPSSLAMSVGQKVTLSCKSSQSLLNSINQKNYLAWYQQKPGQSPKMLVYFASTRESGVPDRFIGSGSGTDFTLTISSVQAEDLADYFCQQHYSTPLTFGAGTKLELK
notes: heavy chain of the Fab in PDB 7TUG and 7TUH (ends after the second cysteine of the hinge, then His6); light chain of the Fab in PDB 7TUG and 7TUH; also called Pt2; Pt2H; source: Expi293F, transfected, purified from culture supernatant (TALON, SEC)
On to B4, for which the equilibrium dissociation constant (Kd) in assay [1] was 1.6 nM.

B5: Fab fragment of the anti-tapasin monoclonal antibody PaSta2 (Fab, V domains shown)
VH: QVQLQQSGAELVRPGTSVKMSCKAAGYTFTNYWIGWIKQRPGHGLEWIGDIYPGGGYTNYNEKFKVKATLTADTSSVTAYMQLSSLTSEDSAIYYCTREGNYGFAYWGQGTLVTVSA
VL: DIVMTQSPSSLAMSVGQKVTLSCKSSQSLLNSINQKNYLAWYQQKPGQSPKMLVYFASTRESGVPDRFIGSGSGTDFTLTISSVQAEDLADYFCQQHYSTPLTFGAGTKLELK
notes: H chain of PaSta2 in PDB 7TUG and 7TUH (deposited here); the Fab H chain ends after the second cysteine in the hinge region, followed by the 6X HIS tag; L chain of PaSta2 in PDB 7TUG and 7TUH (deposited here); also called PaSta2 (Fab); Pt2; source: Expi293F cells, transfected, purified from culture supernatants (TALON, SEC)
In the case of B5, the binding result in assay [5] and in assay [3] was “binds” in each case.

As usually defined, the Kd is the constant that tells how readily two partners part at equilibrium.

These data come from publication PMC9482634, “Structural mechanism of tapasin-mediated MHC-I peptide loading in antigen presentation” (Nature Communications, 2022).
